Measurements from the Human Domainome abundance scans (Beltran et al. 2025).

B1: Mineralocorticoid receptor, residues 600 to 675; numbered along this chain, P08235 (parent)
chain: SKICLVCGDEASGCHYGVVTCGSCKVFFKRAVEGQHNYLCAGRNDCIIDKIRRKNCPACRLQKCLQAGMNLGARKS

Variants of: B1
Test: abundance fitness (aPCA) (normalised: wild type 0, dead -1); higher = more abundant; growth selection in yeast, the domain comes from the species named
Conditions: Homo sapiens

Abundance fitness: each site, then its substitutions
R52: A -0.034; G -0.027; T -0.04; W -0.052; C -0.043; D -0.072; L -0.149; I 0.049; H -0.055; K -0.056; P -0.081; V -0.114; M -0.131; F -0.14; Y -0.234; Q 0.027; S -0.04
A67: R -0.053; E 0.092; Y -0.264; W -0.055; F -0.121; K -0.144; H -0.026; N -0.084; D -0.653; C -0.03; Q -0.17; G -0.076; I -0.076; M 0.055; L -0.002
I47: K 0.018; T 0.027; A -0.035; M -0.079; Y -0.128; S 0; D -0.065; R 0.03; P 0.013; H -0.018; E -0.023; L 0.022; G -0.096; V -0.019; W -0.193; C 0.049; Q -0.024; F -0.01
G68: W -0.447; R -0.172; V -0.518; H -0.381; K -0.217; A -0.382; Q -0.153; E -0.146; N -0.152; L -0.484; F -0.77; S -0.222; D -0.164; I -0.266; M -0.211; T -0.423; P -0.451
I51: V 0.085; S 0.003; Q 0.095; C -0.051; M 0.024; D -0.083; W -0.164; A -0.018; K -0.093; H 0.062; Y 0.048; E -0.048; R -0.018; F -0.076; P -0.137; G -0.016; N -0.108; L 0.018
A58: R -0.033; V -0.446; E -0.12; I -0.827; Q 0.035; K -0.044; P -0.117; D -0.085; M -0.141; C 0.05; W -0.102; L -0.175; G -0.051; F -0.082; N -0.03; S 0.012
L61: I -0.155; H -0.233; Q -0.005; G -0.566; D -0.774; Y 0.04; A -0.315; C -0.843; R -0.205; W -0.004; V -0.101; E -0.214; T -0.361; N -0.338; K 0.021; F -0.031; S -0.471
D49: Y -0.211; R -0.287; P -0.327; F -0.251; I -0.274; M -0.3; W -0.258; E -0.04; S -0.041; A -0.141; V -0.219; K -0.167; H -0.276; L -0.221; N -0.054
C56: R -0.358; Y -0.562
Q66: L -0.112; P -0.697; E 0.081; Y -0.094; T -0.051; A 0.011; C -0.023; W -0.029; R -0.014; M -0.065; D 0.018; V -0.039; G -0.044; I -0.029; H -0.045; F -0.019
P57: K 0.006; T -0.082; I -0.168; D 0.061; R -0.115; A -0.04; Q -0.09; C -0.042; F -0.016; W -0.027; E -0.048; S -0.051; H -0.002; V -0.135; L -0.142; G -0.062; N -0.018
K63: Y -0.137; M -0.074; Q -0.134; S -0.104; G -0.104; N -0.058; P -0.754; E -0.16; H -0.099; L -0.092; I -0.101; A -0.075; D -0.318; F -0.192; W -0.204; T -0.024; R -0.082
C64: Q -0.315; Y -0.452; N -0.886; W -0.523; M -0.017; D -0.716; P -0.869; E -0.851; F -0.466; G -0.02; L -0.351; S -0.113; T -0.35; A -0.028; H -0.821; K -0.885; V -0.587; I -0.415
C46: M -0.81; Q -0.966; N -0.921; S -0.946; W -0.856; P -0.856; R -0.821; V -0.813
R53: I -0.098; Q -0.058; M -0.167; W -0.035; S -0.095; G -0.045; L -0.098; V 0.025; P -0.056; T -0.042; F -0.056; Y -0.261; C -0.159; N -0.075; K -0.078; E 0.087; D -0.024
M69: D -0.293; E -0.307; F -0.239; A -0.058; C -0.128
L65: K -0.107; D -0.051; W -0.035; F -0.01; N -0.058; R -0.055; H 0.032; Q 0.018; G -0.051; A -0.05; M -0.052; E 0.031; V -0.087; T -0.037; Y -0.001
N55: M -0.096; C -0.032; I 0.009; S -0.051; W -0.085; A -0.064; D 0.017; P -0.144; Y -0.155; Q 0.013; E -0.082; R -0.015; L -0.021; T 0.015; F -0.093; H -0.038
C59: H -0.449; S -0.762; G -0.917; W -0.855; D -0.626; E -0.955; T -0.654; Y -0.995; P -0.615; R -0.801; Q -0.957; L -0.658; K -0.972; I -0.955; F -0.788; N -0.711; M -0.913
I48: P -0.131; S -0.122; A -0.074; R -0.147; G -0.033; C -0.226; F -0.104; D -0.107; T -0.026; K -0.082; Q -0.013; W -0.072; H -0.2; L -0.077; Y -0.176; N -0.015; M 0.021; V -0.035; E -0.002
K54: V -0.065; D -0.031; F 0; E -0.046; T 0.038; P -0.072; Y -0.032; N 0.013; L -0.106; W -0.194; I -0.018; G -0.059; H -0.118; S 0.013; A -0.039; R -0.083; Q -0.071
Q62: W -0.059; A -0.013; P -0.887; K 0.046; E -0.054; F -0.16; G -0.028; V -0.022; N 0.033; C -0.002; Y -0.121; L 0.012; S -0.049; H 0.006; R -0.045; M 0.026; T -0.052
